Laboratory results reported in publication PMC2615600.

Columns and labels:
[1] = target: T1, phi29 DNA polymerase wild-type (Bacteriophage phi29, UniProt P03680 1-575); test: EMSA
T1 sequence: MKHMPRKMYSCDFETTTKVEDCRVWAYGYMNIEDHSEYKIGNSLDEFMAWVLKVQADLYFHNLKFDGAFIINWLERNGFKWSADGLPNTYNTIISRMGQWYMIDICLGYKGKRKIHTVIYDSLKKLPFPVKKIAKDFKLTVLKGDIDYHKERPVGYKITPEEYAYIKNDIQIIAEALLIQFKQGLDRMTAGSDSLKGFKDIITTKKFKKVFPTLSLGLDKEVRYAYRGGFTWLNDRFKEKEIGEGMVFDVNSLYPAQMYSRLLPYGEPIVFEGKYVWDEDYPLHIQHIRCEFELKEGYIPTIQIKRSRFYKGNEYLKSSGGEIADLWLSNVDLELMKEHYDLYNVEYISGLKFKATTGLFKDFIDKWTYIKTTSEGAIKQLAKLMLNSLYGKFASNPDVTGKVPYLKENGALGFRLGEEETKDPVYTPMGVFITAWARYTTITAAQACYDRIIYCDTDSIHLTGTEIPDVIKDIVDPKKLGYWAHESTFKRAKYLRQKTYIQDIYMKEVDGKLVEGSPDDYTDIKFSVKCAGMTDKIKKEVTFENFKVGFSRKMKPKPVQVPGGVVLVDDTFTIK

[2] = target: T2, phi29 DNA polymerase G410C/P562C (Bacteriophage phi29, UniProt P03680 1-575, G410C;P562C); test: EMSA
T2 sequence: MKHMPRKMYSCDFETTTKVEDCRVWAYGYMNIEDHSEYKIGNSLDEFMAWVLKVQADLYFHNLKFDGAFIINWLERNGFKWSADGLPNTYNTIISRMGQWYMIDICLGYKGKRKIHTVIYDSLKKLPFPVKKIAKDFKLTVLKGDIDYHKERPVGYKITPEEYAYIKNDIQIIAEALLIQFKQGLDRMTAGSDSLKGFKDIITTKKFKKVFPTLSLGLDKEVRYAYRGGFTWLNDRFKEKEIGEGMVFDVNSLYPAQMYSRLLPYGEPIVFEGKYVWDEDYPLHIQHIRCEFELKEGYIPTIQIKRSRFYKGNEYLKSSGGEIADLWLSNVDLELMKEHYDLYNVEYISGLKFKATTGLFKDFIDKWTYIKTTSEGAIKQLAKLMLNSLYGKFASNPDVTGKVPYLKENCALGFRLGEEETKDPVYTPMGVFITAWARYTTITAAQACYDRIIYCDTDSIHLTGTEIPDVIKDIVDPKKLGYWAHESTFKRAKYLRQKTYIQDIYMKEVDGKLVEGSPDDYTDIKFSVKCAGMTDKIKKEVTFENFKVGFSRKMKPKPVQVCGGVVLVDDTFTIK

B1: sp1/sp1c+6 (15/21mer primer/template) (dsDNA)
DNA 1: GATCACAGTGAGTAC
DNA 2: TCTATTGTACTCACTGTGATC
Question: Does B1 bind [1]?
Answer: Result: binds

Question: And the binding signal [2]?
Answer: Its binding signal is 3 % of wild-type (unit presumed).
